Among the data in US20080014204A1 (CRUCELL HOLLAND B V, published 2008) are Kd values, retold here.

The test addresses S318-510 fragment (amino acids 318-510 of the S protein of SARS-CoV strain Frankfurt 1) (SARS-CoV strain Frankfurt 1, UniProt P59594 318-510).

“And” between values parts separate entries of the source, which are not always exact repeats. Equal values may be shown once.

B1: CR03-014 (antibody, V domains shown)
VH: EVQLVESGGGLVQPGGSLRLSCAASGFTFSDHYMDWVRQAPGKGLEWVGRTRNKANSYTTEYAASVKGRFTISRDDSKNSLYLQMNSLKTEDTAVYYCARGISPFYFDYWGQGTLVTVSS
VL: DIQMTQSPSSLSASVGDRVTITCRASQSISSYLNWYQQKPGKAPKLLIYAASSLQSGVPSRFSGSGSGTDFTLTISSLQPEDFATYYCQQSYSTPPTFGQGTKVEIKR
B1: the Kd is 16.3 nM and 14.8 nM.
